{"source": "a protein production outcome set (Wang et al. 2014)", "assay": "label from the status in PepcDB records"}
{"sequence": "MGSPKVEDTLISDAQIEEAKQDGTTTAVYVIARNSGEFADRLDAEGDYQLWSNEEENLKKVVANFDNVIVVLNVGGIIDTKFFHEIEGLDSLLLMSQAGMRGGDAVVKVLNGEVTPSGKLTDTWAVNYEDYSSSETFGKNDVNTTQEDYTDDIYVGYRYFDTFNVTPAYEFGYGLSYTDFNIDVKDVTVDEENVTVDVKVTNVGKQYSGKEVVEVYFSAPDGALEKPYQELATYGKTDTLAPGESQTLTLSYATTEMSAYSEDLAAYVMEDGDYLVRVGNSSRNTSVEAVINLDSNKVTEQLSNQMVQDEEIDTLSNEGATPYTYEGEAEEIAKAERFELDANAIETVNNASEYDDESVISYVYEGSDYTVVDQEANPRYTKAPSGNNTTPSQLIEPYEETIQYVEKTKENPTLLDVYQGTVTMEELLASLSVEEMSNIVEGLGWGGGSEPIIGAQANSVKGAAGETTSKYYETRAIPNTVLADGPAGIRITQSYEEDGTTYYQYCTAFPIGTLIAQSWDKDVAKQFGEAIGEEMLEMGVTMWLAPGMNIHRNPLCGRNFEYYSEDPLVAGVTAASTTLGVQSHEGIGVTLKHYAANNQEDNRNAVNNTITERALREIYLKGFEIAVKTANPMALMTCYNLNNAMPGADDYDLCTDIPRGEWGFNGLIMTDWGGGQSTPVNSMHAGNDLIMPGGSSKSIAEATGVTLPLGDLQKATRNVLNVIMDSTQFKKIGVENGVEVEIGKFTESAGLGLFLDVTKSEVTSVNKTALQIAVDVASNIADEELENVVPAVANELKAALEEAKAILEDATAEQETVDASFDRLATAIQMLDFIKGDKAALRSFITKVENTVEEEYTPATWTAFAAALGTGNTVLANENAMQEEVDNAYTNLVKAYLNLRLVPNKDKLEDLINQTKALVAANYTADTWKNVSDALVLAENVMSNENATSEEVANAETVLTKAVEGLVVNNTPVTPSTPAVDNTVDSTVKTPVNSGDTTASVKTGDESLTGLFGGITLLSLAGAVLLKRKEN", "values": [{"measurement": "protein production", "value": "failed"}]}
{"sequence": "MGSSHHHHHHSSGLVPRGSHDSAQSDLKEVMVLNATESFVYEPKEQKKMFHATVATENEVFRVKVFNIDLKEKFTPKKIIAIANYVCRNGFLEVYPFTLVADVNADRNMEIPKGLIRSASVTPKINQLCSQTKGSFVNGVFEVHKKNVRGEFTYYEIQDNTGKMEVVVHGRLTTINCEEGDKLKLTCFELAPKSGNTGELRSVIHSHIKVIKTRK", "values": [{"measurement": "protein production", "value": "not failed"}]}
{"sequence": "MGSSHHHHHHSSGLVPRGSHMGKEYFLKVALREAKRAFEKGEVPVGAIIVKEGEIISKAHNSVEELKDPTAHAEMLAIKEACRRLNTKYLEGCELYVTLEPCIMCSYALVLSRIEKVIFSALDKKHGGVVSVFNILDEPTLNHRVKWEYYPLEEASELLSEFFKKLRNNII", "values": [{"measurement": "protein production", "value": "not failed"}]}
{"sequence": "MGSSHHHHHHSSGRENLYFQGMKEVEKNEIKRLSDRLDAIRHQQADLSLVEAADKYAELEKEKATLEAEIARLREVHSQKLSKEAQKLMKMPFQRAITKKEQADMGKLKKSVRGLVVVHPMTALGREMGLEEMTGFSKTTF", "values": [{"measurement": "protein production", "value": "not failed"}]}
{"sequence": "MGSTFFGRPNVVGSSPPSSSPTSSSSSPATRRGKKNGSEKPKQPQRGLGVAQLEKIRLHGEMSCNSFNSYNPSLYPQVTYTNTSLHNRDSDPKASKLIKTRYICV", "values": [{"measurement": "protein production", "value": "failed"}]}
{"sequence": "MGSVLVDLQIATENIEGLPTEEQIVQWATGAVQPEGNEVEMTVRIVDEAESHELNLTYRGKDRPTNVLSFPFECPDEVELPLLGDLVICRQVVEREASEQEKPLMAHWAHMVVHGSLHLLGYDHIEDDEAEEMESLETQIMQGLGFDDPYLAEK", "values": [{"measurement": "protein production", "value": "not failed"}]}
{"sequence": "MGSYQLLVPPPEALSKPLSVPTRLLLGPGPSNLAPRVLAAGSLRMIGHMQKEMLQIMEEIKQGIQYVFQTRNPLTLVVSGSGHCAMETALFNLLEPGDSFLTGTNGIWGMRAAEIADRIGARVHQMIKKPGEHYTLQEVEEGLAQHKPVLLFLVHGESSTGVVQPLDGFGELCHRYQCLLLVDSVASLGGVPIYMDQQGIDIMYSSSQKVLNAPPGISLISFNDKAKYKVYSRKTKPVSFYTDITYLAKLWGCEGETRVIHHTTPVTSLYCLRESLALIAEQGLENCWRRHREATAHLHKHLQEMGLKFFVKDPEIRLPTITTVTVPAGYNWRDIVSYVLDHFSIEISGGLGPTEERVLRIGLLGYNATTENVDRVAEALREALQHCPKNKL", "values": [{"measurement": "protein production", "value": "not failed"}]}
{"sequence": "MGTGGITSNAHVVSPTWHHKHVPPMDDDSVLQRDIGELLSRWGGLQMAVKNQWGGHDSLKKSQELAHNLFHLISQSNGSIFFLLL", "values": [{"measurement": "protein production", "value": "failed"}]}
{"sequence": "MGTKVSDMQKNVTPGRRKGCPNYPPEFKQQLVAASCEPGISISKLALENGINANLLFKWRQQWREGKLLLPSSESPQLLPVTLDAAAEQPESLAEDPETLSISCEVTFRHGTLRFNGNVSEKLLTLLIQELKR", "values": [{"measurement": "protein production", "value": "failed"}]}
{"sequence": "MGTLWWNGTFFTMVHEGDQVEAVFTEDGKIVAIGTAEELRQRYSTRINQEMNCDGAYVYPLEHHHHHH", "values": [{"measurement": "protein production", "value": "not failed"}]}
{"sequence": "MGTVHARSLDPLPMNGPDFGSPDDADLVEVEPQKKQEILENKDVVVQRVHFEGLGRTKDDLVAHEIGQVFKAKNLIEVMRKSHEAREKLLRLGVFRNVEVLIDTCEGEDAVPNGLDVTFEVTELRRVTGSYNTMVGNNEGSMVLGLKLPNLFGRAEKMTFQFSYGTKETSYGLSFFKPQVGNFERNFSVNLYKVTGQFPWSSLRETDRGVSAEINFPIWKTSHTLKWEGVWRELGCLARTASFTIREESGHTLKSSLSHSMVIDSRNASILPKSGALLKINQELAGYTGGDVSFLKEDFELQLNRQLTWDSVLSTSLWGGMLVPIGDRPSSIADRFYLGGPTSVRGFSMYSIGPQSEGDYLGGEAYWAGGVHLYTPLPFRPGRGGFGDLFRTHFFLNAGNLCNLNYGEGPGAHLRRLAECIRWSYGAGLVLRLGNIARLELNYCIPMGVQSGDRICDGVQFGAGIRFL", "values": [{"measurement": "protein production", "value": "failed"}]}
{"sequence": "MGTVSKALTLLTYFNHGRLEIGLSDLTRLSGMNKATVYRLMSELQEAGFVEQVEGARSYRLGPQVLRLAALREASVPILSASRRVLRELSEDTGETTHLSLLQGEQLASLSHAYSSRNATKVMMEDAEVLTFHGTASGLAVLAYSEPSFVDAVLAAPLTARTPQTQTDPAAIRAEIAEVRRTGLAQSIGGFEAEVHSHAVPIFGPDRAVLGALAVAAPTSRMTPDQKRTIPPALRAAGLSLTERIGGACPPEFPTDIAA", "values": [{"measurement": "protein production", "value": "not failed"}]}
{"sequence": "MGVLDIVKAGVISGDELNKIYDYAKAEGFAIPAVNVVGTDSINAVLEAAKKVNSPVIIQFSNGGAKFYAGKNCPNGEVLGAISGAKHVHLLAKAYGVPVILHTDHAARKLLPWIDGLIEANAQYKKTHGQALFSSHMLDLSEESLEENLSTCEVYLQKLDALGVALEIELGCTGGEEDGVDNTGIDNSKLYTQPEDVALAYERLGKISDKFSIAASFGNVHGVYKPGNVSLQPEILKNSQKFVKDKFALNSDKPINFVFHGGSGSELKDIKNAVSYGVIKMNIDTDTQWAFWDGVREYELKNRAYLQGQIGNPEGDDKPNKKYYDPRVWLRSGEESMIKRLEIAFEDLNCINKN", "values": [{"measurement": "protein production", "value": "not failed"}]}
{"sequence": "MGVNMEVCVVKPTSVDDSREITETLLAGRTVILNLEGMDLEIAQRIIDFISGATFAISGNLQKISNYIFLVTPTNVDILEHHHHHH", "values": [{"measurement": "protein production", "value": "failed"}]}
{"sequence": "MGVSEISRSEEKSGIGFVKLFENNVVFPGFLVWMNQTIQEPLKAEFKRLRNVKELSLKSVSKIETAYEEHRDEEKLEKQLQAWRDNPSWIDQPPKVVVKSQNGLFCHLNIEADVGLPPELVYNIFTHPDNKRYFKNIKENISRKVLIDEGPKQTVEVKQAAAWKFLWWDGTCPIHLIVEENRKNLTSKYKQETTMFMKVFEGCWKVEPLFIDEHLCDRSKPKSQKDYHSCSNGRGRIGSKVTMDQMFQPSALLTPPPLSWYIRGITIKTTESMIEDLFAEATRLRGGKGGGYIDDQGENNVVTEKSKADDIKERWRSHRRSKRRRFTTARSM", "values": [{"measurement": "protein production", "value": "failed"}]}
{"sequence": "MGVSPQVARWFDCDLRSVVDHGVDRLRFTWKLGDPVEAELPSEEPFWMVRRDRFDHFLVEQAANLGARIEDGAAVTAVSAEGDGWLVTVGDRAYRSRTLIAADGARGPLAQWLGFPSQKRRYAQACELDVPLPARPDSTAHFEFGLVRNGYIWVFPKSDGYSIGIGTFRGNDATDFRGLLETYLAGFGVSADLDRIVPHPLCVWDGSQPLHRGSALLVGEAASLTDPFTAEGIRPALLSGMRAAEAIDRAIAGDRNALAGYSRTIQQEWGDSMAWAKRISSVFYRVPNLGYQIGIKRPTAPQRMAQILVGELDYSDIATRVIRRLTTGFLPGMRLEHHHHHH", "values": [{"measurement": "protein production", "value": "failed"}]}
{"sequence": "MGVVLARGAFRERSMLTLPDFPLPDARGRFGPYGGRYVPETLIPALEELEAAYREAKKDPAFLEELDHYLRQFAGRPTPLYHAKRLSEYWGGAQVFLKREDLLHTGAHKINNTLGQALLARRMGKRRVIAETGAGQHGVSVATVAALFGLECVVYMGEEDVRRQALNVFRMKLLGAEVRPVAAGSRTLKDATNEAIRDWITNVRTTFYILGSVVGPHPYPMMVRDFQSVIGEEVKRQSLELFGRLPDALIAAVGGGSNAIGLFAPFAYLPEGRPKLIGVEAAGEGLSTGRHAASIGAGKRGVLHGSYMYLLYDHDGQITPAHSVSAGLDYPGVGPEHSYYADAGVAEYASVTDEEALEGFKLLARLEGIIPALESAHAIAYAAKVVPEMDKDQVVVINLSGRGDKDVTEVMRLLGGEL", "values": [{"measurement": "protein production", "value": "not failed"}]}
{"sequence": "MGWHFQQSVTMPSEWRTLALESDDSYNDFTVIMRRKLQENQVNVVNLEQNIPILRINKQITSDQVASIFKHGREAEKLLMLEVEATFRLANGESYPINAKVNRTFFDNARAALAKSEEREVIWNDMREQVARQLIVKIIALQNQIKRKLEHHHHHH", "values": [{"measurement": "protein production", "value": "not failed"}]}
{"sequence": "MGYCIIIPAYNAARTLPAVVREVLGLGMPCLVVDDGSTDGTSATVEGLGVHLLRHDGNRGKGAALRTGFEWALAHGYSGVVTLDADGQHDPTAIPLLAATARERNVDILIASRDTQFREMAGLRSVWNRFGVWCMRKRTGFTITDSQSGFRWYSARLLKGVSLEASGYHLEMEILMKAWRGGFAIDSLPVAARVADGRATSHFRPVRDTWNICMTFLRHMLEHHHHHH", "values": [{"measurement": "protein production", "value": "not failed"}]}
{"sequence": "MGYEGIIVVDVRDAEAYKECHIPTAISIPGNKINEDTTKRLSKEKVIITYCWGPACNGATKAAAKFAQLGFRVKELIGGIEYWRKENGEVEGTLGAKADLFWNMKKESLEHHHHHH", "values": [{"measurement": "protein production", "value": "failed"}]}
{"sequence": "MGYLKNHWWKRWIRRRGCKLAGGPASVGKRTTLVLEERVELGHLRIVPPRLEIGAYSYVRSGTDLSLVASIGRFCSIGSDCFIGQEKHTHPSDWVSSHPFQHTGTALRYEPALSYAEIGHDVWIGHSAMVMEGVKVGTGAIIATRAVVTRDVPPYAIVAGTPAQVIRYRHPPEIIEGLLASRWWELDSAFLTGLPLDR", "values": [{"measurement": "protein production", "value": "failed"}]}
{"sequence": "MGYQLSATLKGHDQDVRDVVAVDDSKVASVSRDGTVRLWSKDDQWLGTVVYTGQGFLNSVCYDSEKELLLFGGKDTMINGVPLFATSGEDPLYTLIGHQGNVCSLSFQDGVVISGSWDKTAKVWKEGSLVYNLQAHNASVWDAKVVSFSENKFLTASADKTIKLWQNDKVIKTFSGIHNDVVRHLAVVDDGHFISCSNDGLIKLVDMHTGDVLRTYEGHESFVYCIKLLPNGDIVSCGEDRTVRIWSKENGSLKQVITLPAISIWSVDCMSNGDIIVGSSDNLVRIFSQEKSRWASEDEINELSTQVEKSTISSKTIEFDESKLSPYEILQSPGRKEGQIVVVKSPQGTIEAHQFSNSSWKKVGDVVGAGATGNDKKIEFEGKTYDYVFDVDIEDGKPPLKLPINVSDNPYTAADNFLARYELPMSYRDQVVQFILKNTNGISLDQPNDNASSSAVSPSKTSVMKVLPVKQYLIMENYNPDTIFNGIVKINSNEKTFDDEILAQIGGALHDIDESWELLLSFANTIRSNWEIKTPAYDIVRLIVKKLPYSSDIKDYIEEGLGNKNITLTMLTVRILVNCFNNENWGVKLLESNQVYKSIFETIDTEFSQASAKQSQNLAIAVSTLIFNYSALVTKGNSDLELLPIVADAINTKYGPLEEYQECEEAAYRLTVAYGNLATVEPTLRQFANSVTWLANIKRSYGNVPRFKDIFDDLS", "values": [{"measurement": "protein production", "value": "failed"}]}
